Molecular target: T1, FLT3 (Homo sapiens, UniProt P36888)
T1 sequence (P36888 27-993): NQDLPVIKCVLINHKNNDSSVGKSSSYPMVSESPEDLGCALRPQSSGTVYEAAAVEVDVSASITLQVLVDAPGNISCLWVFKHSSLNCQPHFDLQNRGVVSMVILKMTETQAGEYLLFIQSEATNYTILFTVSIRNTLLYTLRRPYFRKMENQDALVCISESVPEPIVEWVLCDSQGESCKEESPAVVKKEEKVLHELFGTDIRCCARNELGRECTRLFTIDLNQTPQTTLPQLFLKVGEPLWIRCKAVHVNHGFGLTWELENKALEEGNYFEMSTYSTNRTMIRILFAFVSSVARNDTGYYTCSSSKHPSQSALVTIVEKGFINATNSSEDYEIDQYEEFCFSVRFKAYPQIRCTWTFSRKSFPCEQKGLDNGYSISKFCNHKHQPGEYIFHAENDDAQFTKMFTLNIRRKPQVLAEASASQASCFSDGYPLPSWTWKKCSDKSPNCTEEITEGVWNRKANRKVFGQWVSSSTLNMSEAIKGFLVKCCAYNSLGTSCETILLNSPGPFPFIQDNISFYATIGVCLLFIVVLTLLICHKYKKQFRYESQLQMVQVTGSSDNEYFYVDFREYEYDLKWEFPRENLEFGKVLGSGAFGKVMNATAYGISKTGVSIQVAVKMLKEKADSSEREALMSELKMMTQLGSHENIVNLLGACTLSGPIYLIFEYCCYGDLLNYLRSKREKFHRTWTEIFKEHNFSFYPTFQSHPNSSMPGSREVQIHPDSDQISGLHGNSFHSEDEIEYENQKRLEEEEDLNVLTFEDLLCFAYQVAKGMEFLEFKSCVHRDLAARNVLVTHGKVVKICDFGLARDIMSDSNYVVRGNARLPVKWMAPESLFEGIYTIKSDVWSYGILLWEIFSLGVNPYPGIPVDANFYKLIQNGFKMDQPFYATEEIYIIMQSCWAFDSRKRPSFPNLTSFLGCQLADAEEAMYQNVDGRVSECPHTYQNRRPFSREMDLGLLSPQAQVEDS
Assay: Phosphorylation of existing peptide substrate by FLT3
Format: biochemical
Details: in the applicant's experience

phosphorylation by FLT3: poorly phosphorylated
Sequence: FTDRLQQYISTR [Flt3tide, previously reported Flt3 substrate peptide (Böhmer & Uecker 2009)]

Reference: patent publication US10590168B2, “Substrates for FLT3 kinase and uses thereof” (REGENTS OF THE UNIVERSITY OF MINNESOTA, priority 2016, dated 2020)
